Assay results as given in US20190185550A1 (HEFEI LIFEON PHARMACEUTICAL, published 2019).

Assays:
[1] = molecular target: T1, recombinant ED-B domain of human fibronectin with six histidine tags at the carboxyl terminal (human, UniProt P02751 1266-1356); test: ELISA, Scatchard assay method (Beatty), coated ED-B
T1 construct: domain: ED-B; also called ED-B antigen; independent ED-B domain
Method: The Scatchard assay method (Beatty, Beatty et al. 1987) is used for the affinity determination. 0.1 μg/μl ED-B antigen is diluted according to four concentration gradients of 1:1, 1:2, 1:4 and 1:8, enveloped in the ELISA plate, stored overnight at 4° C., and then blocked with 4% skimmed milk. The single-chain antibody diluted according to the concentration gradient of 1:3 is added with the original concentration of the antibody being 10 μg/ml. The antibody reacts under a room temperature for 1 hr, then reacts for 1 hr under the addition of a horseradish peroxidase-labeled rabbit-anti-human IgG antibody, and is stained by adding tetramethyl benzidine (TMB). When an appropriate color depth is reached, the staining is terminated by using 2M H₂SO₄, and the OD450 optical absorption value is determined.

[2] = molecular target: FN(789), recombinant fibronectin fragment of domains 7, 8 and 9 without the ED-B domain, with 6xHis tags (human, UniProt P02751-1 1173-1446, limits assumed); test: ELISA on coated antigen, antibody B5 as primary antibody, HRP-labeled rabbit anti-human IgG as secondary antibody, OD450
Method: The plasmid is expressed in E. coli and then purified through a Ni-chelating column. The aforementioned three proteins are used as antigens and are blocked with milk. Then an ELISA detection test is conducted by using the antibody B5 as a primary antibody and using the horseradish peroxidase-labeled rabbit-anti-human IgG antibody as the secondary antibody, with the test results being shown in FIG. 2.

[3] = molecular target: T1, recombinant ED-B domain of human …; test: SPR, BIAcore3000, ED-B amine-coupled on the chip

T1 sequence (P02751 other isoform, or with tags, fused parts or gaps limits assumed): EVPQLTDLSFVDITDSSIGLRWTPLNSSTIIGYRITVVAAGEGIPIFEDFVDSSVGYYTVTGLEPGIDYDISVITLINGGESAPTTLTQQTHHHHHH
Sequence of FN(789), recombinant fibronectin fragment of domains 7, 8 and 9 without the ED-B domain, with 6xHis tags (P02751 other isoform, or with tags, fused parts or gaps limits assumed): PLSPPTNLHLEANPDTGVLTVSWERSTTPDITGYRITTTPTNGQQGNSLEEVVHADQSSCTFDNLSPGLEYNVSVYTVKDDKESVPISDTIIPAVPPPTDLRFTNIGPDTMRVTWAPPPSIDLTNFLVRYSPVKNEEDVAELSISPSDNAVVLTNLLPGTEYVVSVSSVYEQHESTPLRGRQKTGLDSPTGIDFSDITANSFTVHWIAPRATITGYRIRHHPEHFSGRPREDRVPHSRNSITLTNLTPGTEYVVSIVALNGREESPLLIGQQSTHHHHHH

Row | Kd [1] [nM] | binding result [2] | Kd [3] [nM] | Binder
1 | 1.8 | no binding |  | antibody B5 (humanized single-chain antibody against the ED-B domain, expressed as a fusion with the Fc of human IgG1) (Fc fusion, also called B5-IgG1Fc; single-chain antibody B5; not shown: Fc fragment of the constant region of human IgG1, fused in frame after the scFv (pCI-neo vector); limits and junction no) scFv: EVQLLESGGGLVQPGGSLRLSCAASGFTFSSYAMSWVRQAPGKGLEWVSRISPSGSSTYYADSVKGRFTISRDNSKNTLYLQMNSLRAEDTAVYYCARHTAPLFDYWGQGTLVTVSSGGGGSGGGGSGGGGSSEIVLTQSPGTLSLSPGERATLSCRASQSVSSSYLAWYQQKPGQAPRLLIYKASNLATGIPDRFSGSGSGTDFTLTISRLEPEDFAVYYCQQGRHTPPTFGQGTKVEIK
2 | 6 |  | 0.4 | antibody L19 (antibody, V domains shown) VH: EVQLLESGGGLVQPGGSLRLSCAASGFTFSSFSMSWVRQAPGKGLEWVSSISGSSGTTYYADSVKGRFTISRDNSKNTLYLQMNSLRAEDTAVYYCAKPFPYFDYWGQGTLVTVSS VL: EIVLTQSPGTLSLSPGERATLSCRASQSVSSSYLAWYQQKPGQAPRLLIYYASSRATGIPDRFSGSGSGTDFTLTISRLEPEDFAVYYCQQTGRIPPTFGQGTKVEIK
